In paper PMC5036196, “Structural and histone binding ability characterization of the ARB2 domain of a histone deacetylase Hda1 from Saccharomyces cerevisiae” (Scientific Reports, 2016):
Changes are numbered by the printed parent chain.

B1: ARB2 domain of Hda1 (Hda1^457–698) (domain or fragment, Saccharomyces cerevisiae, UniProt P53973 457-698, looked up)
chain: LQKAIRQQQQHYLSDEFNFVTLPLVSMDLPDNTVLCTPNISESNTIIIVVHDTSDIWAKRNVISGTIDLSSSVIIDNSLDFIKWGLDRKYGIIDVNIPLTLFEPDNYSGMITSQEVLIYLWDNYIKYFPSVAKIAFIGIGDSYSGIVHLLGHRDTRAVTKTVINFLGDKQLKPLVPLVDETLSEWYFKNSLIFSNNSHQCWKENESRKPRKKFGRVLRCDTDGLNNIIEERFEEATDFILDS
notes: Hda1 (histone deacetylase), S. cerevisiae, C-terminal ARB2 domain, residues 457-698; Homodimer in the crystal (symmetry-related molecules) and by size-exclusion chromatography; A selenomethionine derivative was used for phasing only; also called Native-Hda1^457–698; wild-type ARB2 domain; source: E. coli BL21 (DE3), purified (Ni-NTA, HiTrap Q FF, Superdex 200)
B2: ARB2-M1 (residues Gln463, His467 and Asp471 mutated to Ala) (domain or fragment, Saccharomyces cerevisiae, UniProt P53973 457-698, looked up)
chain: B1 chain with Q7A, H11A, D15A
notes: Hda1, S. cerevisiae, ARB2 domain, residues 457-698, with three substitutions around the groove; source: E. coli BL21 (DE3), purified (Ni-NTA, HiTrap Q FF, Superdex 200)
B3: ARB2-M2 (residues Tyr468 and Glu472 mutated to Ala) (domain or fragment, Saccharomyces cerevisiae, UniProt P53973 457-698, looked up)
chain: B1 chain with Y12A, E16A
notes: Hda1, S. cerevisiae, ARB2 domain, residues 457-698, with two substitutions around the groove; source: E. coli BL21 (DE3), purified (Ni-NTA, HiTrap Q FF, Superdex 200)
B4: ARB2-M3 (residues Val481, Ser482, Met483 and Asp484 mutated to Ala) (domain or fragment, Saccharomyces cerevisiae, UniProt P53973 457-698, looked up)
chain: B1 chain with V25A, S26A, M27A, D28A
notes: Hda1, S. cerevisiae, ARB2 domain, residues 457-698, with four substitutions around the groove; source: E. coli BL21 (DE3), purified (Ni-NTA, HiTrap Q FF, Superdex 200)

Experiments:
[1] = target: the molecule itself; assay: SEC; Superdex 200 10/300 GL, 0.5 ml/min, 25 mM Tris-HCl pH 7.5, 200 mM NaCl; apparent molecular mass against standard proteins
[2] = target: yeast histone H3-H4 tetramer (Saccharomyces cerevisiae, UniProt P61830 1-136; P02309 1-103); assay: ITC; ITC200 at 20 °C; 0.5 mM ARB2 or mutant in the injector, 0.2 mM H2A/B or 0.25 mM H3/4 in the sample cell; 25 mM Tris-HCl pH 7.5, 200 mM NaCl; single-site fitting model; settings: both partners purified

Binder | stoichiometry N [1] | Kd [2] [µM] | dH [2] [kcal/mol] | stoichiometry N [2]
B1 | 2 | 3.24 ± 0.49 | -33.9 | 1.52
B2 | – | 9.84 ± 1.48 | -7.63 | 0.78
B3 | – | 6.93 ± 1.24 | -24.1 | 1.1
B4 | – | 8.19 ± 0.72 | -20.2 | 0.9
